Publication PMC9966940

Target: SOD1-His (not stated (human or mouse cDNA cloned)) (UniProt P00441)
Sequence (P00441 whole entry): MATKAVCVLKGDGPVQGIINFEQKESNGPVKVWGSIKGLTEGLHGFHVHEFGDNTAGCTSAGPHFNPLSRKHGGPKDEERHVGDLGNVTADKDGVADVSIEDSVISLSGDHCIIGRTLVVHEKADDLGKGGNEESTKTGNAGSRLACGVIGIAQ

YWHAE protein purified by His tag from Pichia pastoris, sequence (P62258 whole entry): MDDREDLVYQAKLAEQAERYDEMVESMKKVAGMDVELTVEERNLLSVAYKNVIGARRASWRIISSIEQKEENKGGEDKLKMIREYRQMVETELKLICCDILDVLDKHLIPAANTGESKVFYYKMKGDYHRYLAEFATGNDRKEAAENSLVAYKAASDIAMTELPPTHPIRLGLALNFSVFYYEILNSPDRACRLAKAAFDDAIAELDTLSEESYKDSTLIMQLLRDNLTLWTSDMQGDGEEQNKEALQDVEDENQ

Substance: YWHAE protein purified by His tag from Pichia pastoris (from UniProt P62258 1-255) (natural protein)
- SOD1 activity of purified SOD1 incubated with purified YWHAE at 1:1 for 0-15 h at 4 °C in SOD1 activity assay buffer, against SOD1 plus buffer; value at 4 h: 40%
